{"source": "patent US20230407373A1", "about": "(priority 2020, published 2023)", "key": {"SARS-CoV-2 gRNA": {"system": "SARS-CoV-2 gRNA", "assay_type": "binding"}, "[1]": {"system": "SARS-CoV-2 gRNA and sgRNAs", "assay_type": "binding"}, "gRNA of HCoV-OC43": {"system": "gRNA of HCoV-OC43", "assay_type": "binding", "details": "type n_48_v: 48 hours post-infection"}, "HCoV-OC43 gRNA and sgRNA": {"system": "HCoV-OC43 gRNA and sgRNA", "assay_type": "binding"}, "SARS-CoV-2": {"system": "SARS-CoV-2", "assay_type": "cell-based"}}}
{"molecule": "CSDE1: host protein, UniProt O75534 (protein, UniProt O75534 1-798, looked up) Cold shock domain-containing …: MSFDPNLLHNNGHNGYPNGTSAALRETGVIEKLLTSYGFIQCSERQARLFFHCSQYNGNLQDLKVGDDVEFEVSSDRRTGKPIAVKLVKIKQEILPEERMNGQVVCAVPHNLESKSPAAPGQSPTGSVCYERNGEVFYLTYTPEDVEGNVQLETGDKINFVIDNNKHTGAVSARNIMLLKKKQARCQGVVCAMKEAFGFIERGDVVKEIFFHYSEFKGDLETLQPGDDVEFTIKDRNGKEVATDVRLLPQGTVIFEDISIEHFEGTVTKVIPKVPSKNQNDPLPGRIKVDFVIPKELPFGDKDTKSKVTLLEGDHVRFNISTDRRDKLERATNIEVLSNTFQFTNEAREMGVIAAMRDGFGFIKCVDRDVRMFFHFSEILDGNQLHIADEVEFTVVPDMLSAQRNHAIRIKKLPKGTVSFHSHSDHRFLGTVEKEATFSNPKTTSPNKGKEKEAEDGIIAYDDCGVKLTIAFQAKDVEGSTSPQIGDKVEFSISDKQRPGQQVATCVRLLGRNSNSKRLLGYVATLKDNFGFIETANHDKEIFFHYSEFSGDVDSLELGDMVEYSLSKGKGNKVSAEKVNKTHSVNGITEEADPTIYSGKVIRPLRSVDPTQTEYQGMIEIVEEGDMKGEVYPFGIVGMANKGDCLQKGESVKFQLCVLGQNAQTMAYNITPLRRATVECVKDQFGFINYEVGDSKKLFFHVKEVQDGIELQAGDEVEFSVILNQRTGKCSACNVWRVCEGPKAVAAPRPDRLVNRLKNITLDDASAPRLMVLRQPRGPDNSMGFGAERKIRQAGVID", "values": [{"measurement": "enrichment in SARS-CoV-2 Probe I RNP capture", "setting": "SARS-CoV-2 gRNA", "result": "enriched"}, {"measurement": "target (unweighted spectral count of the protein in the RNP capture)", "setting": "SARS-CoV-2 gRNA; […], LC-MS/MS, Probe I sample (first 199 lines of Table 2)", "result": 37}, {"measurement": "enrichment in SARS-CoV-2 Probe II RNP capture", "setting": "[1]", "result": "enriched"}, {"measurement": "target (unweighted spectral count in RNP capture)", "setting": "[1]; Probe II capture, […], LC-MS/MS LFQ", "result": 92}, {"measurement": "background (unweighted spectral count in control)", "setting": "[1]; no-probe control pull-down, used as background for Probe II", "result": 1}, {"measurement": "target (spectral count, OC43 Probe I RNP capture)", "setting": "gRNA of HCoV-OC43; infected cells, OC43 Probe I, unweighted spectral count", "result": 20}, {"measurement": "background (spectral count, no-probe control)", "setting": "gRNA of HCoV-OC43; no-probe control on infected cells", "result": 1}, {"measurement": "target (unweighted spectral count)", "setting": "HCoV-OC43 gRNA and sgRNA; OC43 Probe II, 24 hpi (type n_24_v), infected cells, tested against no-probe control", "result": 18}, {"measurement": "target (unweighted spectral count, OC43 Probe II)", "setting": "HCoV-OC43 gRNA and sgRNA; type n_48_v, 48 hpi, OC43 Probe II capture on infected cells", "result": 21}, {"measurement": "background (unweighted spectral count, no-probe control)", "setting": "HCoV-OC43 gRNA and sgRNA; type n_48_v, 48 hpi, no-probe control on infected cells", "result": 1}, {"measurement": "target (spectral count)", "setting": "HCoV-OC43 gRNA and sgRNA; type s_36_m, HCoV-OC43-infected HCT-8 cells, 36 hpi, Probe II", "result": 24}, {"measurement": "background (spectral count)", "setting": "HCoV-OC43 gRNA and sgRNA; type s_36_m, uninfected-probe control, 36 hpi, Probe II", "result": 3}, {"measurement": "antiviral or proviral role of the host protein indicated by knockdown", "setting": "SARS-CoV-2", "result": "proviral effects"}]}
